Molecular target: V5–FoTO1 (Taxus media)
Test: co-IP; lysate of N. benthamiana leaves co-expressing both proteins; anti-V5 antibody on protein G magnetic beads, blot with anti-HA-HRP; lysates incubated 15 min with no compound, 45 μM taxadiene or a mock terpene (caryophyllene); extraction buffer 50 mM Tris pH 7.5, 150 mM NaCl, 0.6% NP-40, 0.6% CHAPS, 1 mM β-mercaptoethanol

T5αH–HA, sequence (Q6WG30 whole entry): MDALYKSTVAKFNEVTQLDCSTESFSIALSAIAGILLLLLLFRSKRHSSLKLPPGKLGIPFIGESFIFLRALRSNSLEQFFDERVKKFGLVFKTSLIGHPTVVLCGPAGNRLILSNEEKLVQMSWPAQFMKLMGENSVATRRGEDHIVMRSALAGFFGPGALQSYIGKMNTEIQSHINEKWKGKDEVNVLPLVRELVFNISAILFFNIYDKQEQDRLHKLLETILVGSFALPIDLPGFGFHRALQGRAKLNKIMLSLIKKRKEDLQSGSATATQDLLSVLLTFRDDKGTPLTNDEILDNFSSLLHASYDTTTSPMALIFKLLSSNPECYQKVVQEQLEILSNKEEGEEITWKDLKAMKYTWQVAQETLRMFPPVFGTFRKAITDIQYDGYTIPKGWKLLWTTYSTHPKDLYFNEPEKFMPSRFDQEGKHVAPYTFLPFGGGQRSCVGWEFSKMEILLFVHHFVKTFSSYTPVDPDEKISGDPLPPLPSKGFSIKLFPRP

fold increase of the co-IP signal with 45 μM taxadiene: 4 fold
Substance: T5αH–HA (from UniProt Q6WG30 1-499) (enzyme)

— PMC12240809
